Patent US20240368309A1 (Hoffmann-La Roche, published 2024)

Columns and labels:
[1] = target: T1, human EpCAM on tumor cells (KATO-III, HT-29, MKN45, NCI-H1755) (human, UniProt P16422 24-314); assay: flow cytometry, KATO-III cells (EpCAM+); PE-labelled goat anti-human detection; fluorescence intensity [PE] against concentration (nM); CD19-targeted negative control
T1 construct: endogenous EpCAM of human tumor cell lines; also called epithelial cell adhesion molecule
T1 sequence: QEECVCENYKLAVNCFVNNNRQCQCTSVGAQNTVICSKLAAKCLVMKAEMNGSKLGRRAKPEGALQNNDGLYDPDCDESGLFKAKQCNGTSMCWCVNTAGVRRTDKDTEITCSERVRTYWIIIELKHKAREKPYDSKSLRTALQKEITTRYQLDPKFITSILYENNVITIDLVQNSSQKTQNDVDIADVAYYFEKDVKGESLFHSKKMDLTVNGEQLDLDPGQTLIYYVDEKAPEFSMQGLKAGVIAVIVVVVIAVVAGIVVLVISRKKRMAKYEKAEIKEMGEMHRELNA

[2] = target: T2, biotinylated monovalent EpCAM-Fc (human EpCAM ECD-Fc knob avi-his paired with Fc hole) (human, UniProt P01857 104-328 = IgG part, biotin on the avi tag (BirA co-expression)); assay: SPR ProteOn XPR36 off-rate, biotinylated monovalent EpCAM-Fc on NLC chip
T2 construct: also called monovalent EpCAM-Fc construct; huEPCAM-Fc-knob (avi-His) + Fc hole (wt)

Binder	binding result [1]	koff [2] [s⁻¹]
CD19 (8B8-2B11)-CD28 (SA_variant 8) 1+1 (bispecific antibody, human IgG1, kappa, L234A L235A, control; huIgG1 PG-LALA CrossFab; charged modifications in CD28 Fab (knob), VH/VL exchange in CD19 Fab (hole); also called Molecule H; P1AF0175) heavy 1: not shown light 1: not shown heavy 2: DIVMTQTPLSLSVTPGQPASISCKSSQSLETSTGTTYLNWYLQKPGQSPQLLIYRVSKRFSGVPDRFSGSGSGTDFTLKISRVEAEDVGVYYCLQLLEDPYTFGQGTKLEIKSSASTKGPSVFPLAPSSKSTSGGTAALGCLVKDYFPEPVTVSWNSGALTSGVHTFPAVLQSSGLYSLSSVVTVPSSSLGTQTYICNVNHKPSNTKVDKKVEPKSCDKTHTCPPCPAPEAAGGPSVFLFPPKPKDTLMISRTPEVTCVVVDVSHEDPEVKFNWYVDGVEVHNAKTKPREEQYNSTYRVVSVLTVLHQDWLNGKEYKCKVSNKALGAPIEKTISKAKGQPREPQVCTLPPSRDELTKNQVSLSCAVKGFYPSDIAVEWESNGQPENNYKTTPPVLDSDGSFFLVSKLTVDKSRWQQGNVFSCSVMHEALHNHYTQKSLSLSP light 2: QVQLVQSGAEVKKPGASVKVSCKASGYTFTDYIMHWVRQAPGQGLEWMGYINPYNDGSKYTEKFQGRVTMTSDTSISTAYMELSRLRSDDTAVYYCARGTYYYGPQLFDYWGQGTTVTVSSASVAAPSVFIFPPSDEQLKSGTASVVCLLNNFYPREAKVQWKVDNALQSGNSQESVTEQDSKDSTYSLSSTLTLSKADYEKHKVYACEVTHQGLSSPVTKSFNRGEC	no binding (tested: 500 nM)	–
parental murine anti-human EpCAM antibody MOC31 (antibody, V domains shown) VH: QVQLQQSGPELKKPGETVKISCKASGYTFTNYGMNWVKQAPGRGLKWMGWINTYTGESTYADDFKGRFAFSLETSASAAYLQINNLKNEDTATYFCARFAIKGDYWGQGTTLTVSS VL: DIVMTQSAFSNPVTLGTSASISCRSTKSLLHSNGITYLYWYLQKPGQSPQLLIYQMSNLASGVPDRFSSSGSGTDFTLRISRVEAEDVGVYYCAQNLEIPRTFGGGTKLEIK	–	0.00024
